Assay results: paper PMC10866537

Assays:
4-1BBL (Homo sapiens) = 4-1BBL (Homo sapiens) (UniProt P41273); conditions: cited from earlier work
[1] = molecular target: mouse 4-1BB–Fc protein (mouse) (UniProt P20334); assay: SPR; BIAcore X100; siglec-4–Fc or m4-1BB–Fc amine-coupled to CM5; h4-1BB–HIS or m-siglec-4–HIS flowed at 18 to 3000 nM in HBS-EP (10 mM Hepes pH 7.4, 150 mM NaCl, 3 mM EDTA, 0.05% P20); fitted with a 1:2 binding model
mouse 4-1BB–Fc protein (mouse), sequence (P20334 24-187): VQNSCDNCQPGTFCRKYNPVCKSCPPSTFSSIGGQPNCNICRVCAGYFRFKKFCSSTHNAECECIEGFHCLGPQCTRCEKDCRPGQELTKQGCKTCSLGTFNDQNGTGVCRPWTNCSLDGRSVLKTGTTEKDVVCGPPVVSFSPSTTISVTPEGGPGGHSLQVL

4-1BBL (Homo sapiens), sequence (P41273 whole entry): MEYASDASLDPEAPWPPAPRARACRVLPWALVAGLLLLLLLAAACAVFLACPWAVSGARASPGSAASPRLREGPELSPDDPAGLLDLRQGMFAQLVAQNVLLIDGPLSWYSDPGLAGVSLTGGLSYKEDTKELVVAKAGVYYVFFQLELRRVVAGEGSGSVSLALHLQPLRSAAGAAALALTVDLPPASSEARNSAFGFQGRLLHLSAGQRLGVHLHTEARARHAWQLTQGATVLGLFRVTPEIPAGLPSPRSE
4-1BB, sequence (Q07011 24-255): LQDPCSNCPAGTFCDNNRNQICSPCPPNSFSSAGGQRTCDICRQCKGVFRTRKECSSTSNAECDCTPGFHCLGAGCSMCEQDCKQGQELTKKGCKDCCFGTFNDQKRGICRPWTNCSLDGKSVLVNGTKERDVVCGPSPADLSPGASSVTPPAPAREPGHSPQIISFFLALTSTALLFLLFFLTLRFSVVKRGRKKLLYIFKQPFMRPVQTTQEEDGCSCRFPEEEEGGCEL

| Kd [1] | Substance | Kd (4-1BBL (Homo sapiens)) |
| --- | --- | --- |
| – | 4-1BB (from UniProt Q07011) | 0.0856 µM |
| 0.86 µM | mouse siglec-4–HIS protein (domain or fragment) | – |
